In experiment [1] the target is T1, Macaca Fascicularis GP130 extracellular domain expressed with a C-terminal myc-myc-hexahistidine tag (Macaca fascicularis, UniProt P40189 23-619 (human entry)).
T1 construct: also called mfGP130-MMH; mfGP130-mmH
T1 chain: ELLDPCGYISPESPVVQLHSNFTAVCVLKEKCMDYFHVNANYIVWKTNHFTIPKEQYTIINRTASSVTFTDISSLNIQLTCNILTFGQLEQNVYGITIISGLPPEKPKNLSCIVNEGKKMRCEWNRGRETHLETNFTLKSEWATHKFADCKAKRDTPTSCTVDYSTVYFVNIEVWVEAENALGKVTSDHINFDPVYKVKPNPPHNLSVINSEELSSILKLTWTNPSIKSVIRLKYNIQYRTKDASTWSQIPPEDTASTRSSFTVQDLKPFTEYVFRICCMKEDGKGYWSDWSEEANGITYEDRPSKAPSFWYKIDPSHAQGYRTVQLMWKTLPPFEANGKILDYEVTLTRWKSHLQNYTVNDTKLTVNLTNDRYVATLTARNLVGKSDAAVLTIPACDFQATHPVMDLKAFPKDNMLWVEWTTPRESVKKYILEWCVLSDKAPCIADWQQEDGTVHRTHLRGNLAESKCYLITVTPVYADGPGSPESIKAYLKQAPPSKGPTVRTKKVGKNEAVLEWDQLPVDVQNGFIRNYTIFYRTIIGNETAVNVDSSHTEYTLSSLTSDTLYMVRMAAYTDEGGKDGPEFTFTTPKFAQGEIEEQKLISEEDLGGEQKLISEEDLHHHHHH
As to the kind of experiment: SPR, bsAb captured by anti-hFc, 37C. In a few lines: (§1)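 Anti-hFc-captured bispecific antibodies received 3-fold serial dilutions of LEPR or GP130 (100 nM–3.7 nM) in HBS-ET, pH 7.4, injected for 4 min with 10 min dissociation at 25 °C or 37 °C. ka and kd came from a 1:1 binding model with mass transport limitation, and KD and t½ were calculated from these rate constants.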
A general note: In SPR one partner is held on a chip, and binding of the other changes the refractive index at the surface.

For experiment [2], the target named is T2, human GP130 extracellular domain expressed with a C-terminal myc-myc-hexahistidine tag (human, UniProt P40189 23-619).
T2 construct: also called hGP130-MMH; hGP130-mmH
The experiment is described as follows: SPR, bsAb captured by anti-hFc, 37C. In a few lines: as §1

In experiment [3] the target is T3, mutant human LEPR (Y1141F) on HEK293.STAT3.Luc.GP130.hLEPR (Y1141F) cells (human, UniProt P48357 22-1165).
T3 sequence (looked up): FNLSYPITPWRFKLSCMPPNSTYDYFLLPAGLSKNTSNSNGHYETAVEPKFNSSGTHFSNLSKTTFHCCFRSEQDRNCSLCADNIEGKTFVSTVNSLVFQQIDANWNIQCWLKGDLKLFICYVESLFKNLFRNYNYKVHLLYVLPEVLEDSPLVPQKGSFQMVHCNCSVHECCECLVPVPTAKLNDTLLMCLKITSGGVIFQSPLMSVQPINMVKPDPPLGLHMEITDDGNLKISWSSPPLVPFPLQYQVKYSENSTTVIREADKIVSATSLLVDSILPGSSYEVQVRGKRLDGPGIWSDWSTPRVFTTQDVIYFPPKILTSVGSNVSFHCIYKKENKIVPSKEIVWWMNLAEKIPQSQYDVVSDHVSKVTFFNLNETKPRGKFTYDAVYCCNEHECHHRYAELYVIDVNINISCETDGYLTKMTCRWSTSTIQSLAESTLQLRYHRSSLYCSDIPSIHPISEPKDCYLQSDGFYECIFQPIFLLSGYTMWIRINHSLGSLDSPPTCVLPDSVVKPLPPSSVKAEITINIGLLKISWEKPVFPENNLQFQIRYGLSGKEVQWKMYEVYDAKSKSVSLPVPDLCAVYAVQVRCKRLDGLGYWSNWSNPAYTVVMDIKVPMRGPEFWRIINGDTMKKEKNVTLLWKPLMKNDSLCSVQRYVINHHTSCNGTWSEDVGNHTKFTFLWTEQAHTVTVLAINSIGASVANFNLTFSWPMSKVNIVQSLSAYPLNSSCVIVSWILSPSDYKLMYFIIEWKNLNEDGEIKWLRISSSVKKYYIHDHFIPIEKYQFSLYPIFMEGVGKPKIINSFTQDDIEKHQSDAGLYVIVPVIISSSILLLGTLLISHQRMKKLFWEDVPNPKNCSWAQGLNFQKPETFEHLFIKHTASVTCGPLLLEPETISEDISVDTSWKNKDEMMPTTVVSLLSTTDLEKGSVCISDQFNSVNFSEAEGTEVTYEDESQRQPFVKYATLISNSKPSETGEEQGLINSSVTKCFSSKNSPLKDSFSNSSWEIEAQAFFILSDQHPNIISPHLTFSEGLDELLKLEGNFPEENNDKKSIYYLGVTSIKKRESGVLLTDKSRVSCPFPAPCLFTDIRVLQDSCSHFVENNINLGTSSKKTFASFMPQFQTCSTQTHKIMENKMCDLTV
As to the kind of experiment: cell-based or functional assay.

For orientation: Kd means the free concentration of one partner at which half of the binding sites on the other are occupied at equilibrium, for simple one-to-one binding. Low values mean higher affinity, high ones lower affinity. Broadly, the koff is the first-order rate constant of dissociation. The low end stands for a long-lived complex, the high end for a short-lived complex. The kon is a measure of how fast the partners come together. Higher therefore signals fast association. For orientation: t½ means the time in which the quantity being followed falls by half. A lower t½ goes with fast loss.

B1: bsAb21236D (bispecific antibody, V domains shown)
VH 1: QVQLQESGPGLVKPSQTLSLTCTVSGGSISSGGDYWSWIRQLPGKGLEWIGYIYYSGSAYYNPSLKSRGTISIDTSKNQFSLKLTSVTAADTAVYFCVKLRFLEWFLGGWFGPWGQGTLVTVSS
VH 2: QVQLVESGGGLVKPGGSLRLSCAASGFTFSDYYMTWIRQTPGKGLDWVSYISSSGTNKYNADSVKGRFTISRDNAKNSLYLQMNSLRAEDTAVYYCVRDPPWGMDVWGQGTTVTVSS
VL: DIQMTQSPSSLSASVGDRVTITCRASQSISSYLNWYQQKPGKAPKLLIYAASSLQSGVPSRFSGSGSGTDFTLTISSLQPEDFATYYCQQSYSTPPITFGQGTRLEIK
notes: LEPR x GP130 bispecific with common light chain; also called H4H21236D; bsAb21236 (LEPR × GP130)
B1: in experiment [1], the “100 nM mfGP130-MMH Bound (RU)” value amounted to 18 RU, the dissociation constant Kd came out at 179 nM, the koff came out at 0.0125 s⁻¹ and the kon is 69800 M⁻¹ s⁻¹. The same molecule had a t½ in experiment [1] of 0.9 min. Further, in experiment [2], the “100 nM hGP130-MMH Bound (RU)” value was 12 RU, the Kd was determined as 248 nM, the koff was found to be 0.0148 s⁻¹ and the on-rate constant (kon) was found to be 59700 M⁻¹ s⁻¹. This molecule registered a t½ in experiment [2] of 0.8 min. Also, in experiment [3], the “EC50 (M), STAT3-luciferase activation of HEK293.STAT3.Luc.GP130.hLEPR (Y1141F) cells, 10 nM leptin” value was 2.11e-09 M.

B2: bsAb21237D (bispecific antibody, V domains shown)
VH 1: EVQLVESGGGLVQPGGSLRLSCAASGFTFSNYGMTWVRQAPGKGLEWVSAITGGGGSTYYSNSVKGRFTISRDNSKNTVYLRMNSVRAEDTAVYYCAKYKWNFVDDWGQGTTVTVSS
VH 2: QVQLVESGGGLVKPGGSLRLSCAASGFTFSDYYMTWIRQTPGKGLDWVSYISSSGTNKYNADSVKGRFTISRDNAKNSLYLQMNSLRAEDTAVYYCVRDPPWGMDVWGQGTTVTVSS
VL: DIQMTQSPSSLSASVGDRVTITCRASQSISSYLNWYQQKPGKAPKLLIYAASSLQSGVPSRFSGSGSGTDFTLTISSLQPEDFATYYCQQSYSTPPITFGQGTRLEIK
notes: LEPR x GP130 bispecific with common light chain; also called H4H21237D; bsAb21237 (LEPR × GP130)
Turning to B2, in experiment [1], the “100 nM mfGP130-MMH Bound (RU)” value came to 21 RU; the affinity, expressed as Kd, was 215 nM; the koff amounted to 0.00792 s⁻¹; the kon worked out at 36900 M⁻¹ s⁻¹. In experiment [1], this molecule returned a t½ of 1.5 min. In experiment [2], the “100 nM hGP130-MMH Bound (RU)” value was 19 RU; the affinity, expressed as Kd, was 144 nM; the koff amounted to 0.00879 s⁻¹; the kon amounted to 61100 M⁻¹ s⁻¹. Also, the t½ in experiment [2] stood at 1.3 min. Further, the “EC50 (M), STAT3-luciferase activation of HEK293.STAT3.Luc.GP130.hLEPR (Y1141F) cells, 10 nM leptin” value in experiment [3] worked out at 2.46e-09 M.

The values above are taken from patent US20240158497A1 (published 2024).
